Values quoted from earlier work in patent US20150072391A1, “ETHANOL PRODUCTION IN ENGINEERED YEAST” (Massachusetts Institute of Technology, priority 2013, published 2015).

Settings: low viscosity CMC; cited from earlier work

B1: Cellulamonas fimi Eng (cenA): endoglucanase expressed in S. cerevisiae (protein, UniProt P07984 32-449, looked up)
Endoglucanase A: APGCRVDYAVTNQWPGGFGANVTITNLGDPVSSWKLDWTYTAGQRIQQLWNGTASTNGGQVSVTSLPWNGSIPTGGTASFGFNGSWAGSNPTPASFSLNGTTCTGTVPTTSPTPTPTPTTPTPTPTPTPTPTPTVTPQPTSGFYVDPTTQGYRAWQAASGTDKALLEKIALTPQAYWVGNWADASHAQAEVADYTGRAVAAGKTPMLVVYAIPGRDCGSHSGGGVSESEYARWVDTVAQGIKGNPIVILEPDALAQLGDCSGQGDRVGFLKYAAKSLTLKGARVYIDAGHAKWLSVDTPVNRLNQVGFEYAVGFALNTSNYQTTADSKAYGQQISQRLGGKKFVIDTSRNGNGSNGEWCNPRGRALGERPVAVNDGSGLDALLWVKLPGESDGACNGGPAAGQWWQEIALEMARNARW
activity measured per L culture broth: 293 U/L (low viscosity
